# Biological target: eIF4E (endogenous) (human (endogenous in HCT116), UniProt P06730 1-217)
# Test: co-IP
# Sequence of eIF4E (endogenous) (P06730 whole entry): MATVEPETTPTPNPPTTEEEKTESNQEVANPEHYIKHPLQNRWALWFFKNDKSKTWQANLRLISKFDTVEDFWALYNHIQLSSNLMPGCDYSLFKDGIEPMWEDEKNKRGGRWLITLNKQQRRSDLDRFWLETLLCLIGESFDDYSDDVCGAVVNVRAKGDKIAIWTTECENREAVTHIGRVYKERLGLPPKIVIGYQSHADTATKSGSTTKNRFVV
binder,measurement,value
"p-RNPC1 (endogenous RNPC1 phosphorylated at Ser195) (natural protein, human (endogenous in HCT116 and RKO), UniProt Q9H0Z9 1-239, looked up, phosphoserine at 195) MLLQPAPCAPSAGFPRPLAAPGAMHGSQKDTTFTKIFVGGLPYHTTDASLRKYFEGFGDIEEAVVITDRQTGKSRGYGFVTMADRAAAERACKDPNPIIDGRKANVNLAYLGAKPRSLQTGFAIGVQQLHPTLIQRTYGLTPHYIYPPAIVQPSVVIPAAPVPSLSSPYIEYTPASPAYAQYPPATYDQYPYAASPATAASFVGYSYPAAVPQALSAAAPAGTTFVQYQAPQLQPDRMQ",ratio of p-RNPC1 versus RNPC1 in anti-eIF4E immunocomplexes,0.12

# From PMC3814645 (Genes & Development, 2013)
